According to PMC9512828:

B1: PTH1R-WT coupled to a C-terminal HaloTag (parathyroid hormone 1 receptor) [not stated] / β-arrestin2 WT C-terminally fused to Nanoluciferase [not stated] (parent)
chain 1: MGEKPGTRVFKKSSPNCKLTVYLGKRDFVDHLDKVDPVDGVVLVDPDYLKDRKVFVTLTCAFRYGREDLDVLGLSFRKDLFIANYQAFPPTPNPPRPPTRLQERLLRKLGQHAHPFFFTIPQNLPCSVTLQPGPEDTGKACGVDFEIRAFCAKSLEEKSHKRNSVRLVIRKVQFAPEKPGPQPSAETTRHFLMSDRSLHLEASLDKELYYHGEPLNVNVHVTNNSTKTVKKIKVSVRQYADICLFSTAQYKCPVAQVEQDDQVSPSSTFCKVYTITPLLSNNREKRGLALDGKLKHEDTNLASSTIVKEGANKEVLGILVSYRVKVKLVVSRGGDVSVELPFVLMHPKPHDHIALPRPQSAATHPPTLLPSAVPETDAPVDTNLIEFETNYATDDDIVFEDFARLRLKGLKDEDYDDQFC
chain 2: DADDVMTKEEQIFLLHRAQAQCEKRLKEVLQRPASIMESDKGWTSASTSGKPRKDKASGKLYPESEEDKEAPTGSRYRGRPCLPEWDHILCWPLGAPGEVVAVPCPDYIYDFNHKGHAYRRCDRNGSWELVPGHNRTWANYSECVKFLTNETREREVFDRLGMIYTVGYSVSLASLTVAVLILAYFRRLHCTRNYIHMHLFLSFMLRAVSIFVKDAVLYSGATLDEAERLTEEELRAIAQAPPPPATAAAGYAGCRVAVTFFLYFLATNYYWILVEGLYLHSLIFMAFFSEKKYLWGFTVFGWGLPAVFVAVWVSVRATLANTGCWDLSSGNKKWIIQVPILASIVLNFILFINIVRVLATKLRETNAGRCDTRQQYRKLLKSTLVLMPLFGVHYIVFMATPYTEVSGTLWQVQMHYEMLFNSFQGFFVAIIYCFCNGEVQAEIKKSWSRWTLALDFKRKARSGSSSYSYGPMVSHTSVTNVGPRVGLGLPLSPRLLPTATTNGHPQLPGHAKPGTPALETLETTPPAMAAPKDDGFLNGSCSGLDEEASGPERPPALLQEEWETVM
B2: PTH1R-WT coupled to a C-terminal HaloTag (parathyroid hormone 1 receptor) [not stated] / β-arrestin2-dFLR (finger-loop region Y64 to K78 deleted) C-terminally fused to Nanoluciferase [not stated] (parent)
chain 1: MGEKPGTRVFKKSSPNCKLTVYLGKRDFVDHLDKVDPVDGVVLVDPDYLKDRKVFVTLTCAFRDLFIANYQAFPPTPNPPRPPTRLQERLLRKLGQHAHPFFFTIPQNLPCSVTLQPGPEDTGKACGVDFEIRAFCAKSLEEKSHKRNSVRLVIRKVQFAPEKPGPQPSAETTRHFLMSDRSLHLEASLDKELYYHGEPLNVNVHVTNNSTKTVKKIKVSVRQYADICLFSTAQYKCPVAQVEQDDQVSPSSTFCKVYTITPLLSNNREKRGLALDGKLKHEDTNLASSTIVKEGANKEVLGILVSYRVKVKLVVSRGGDVSVELPFVLMHPKPHDHIALPRPQSAATHPPTLLPSAVPETDAPVDTNLIEFETNYATDDDIVFEDFARLRLKGLKDEDYDDQFC
chain 2: B1 chain 2
B3: PTH1R-WT coupled to a C-terminal HaloTag (parathyroid hormone 1 receptor) [not stated] / β-arrestin1-dFLR (finger-loop region Y63 to K77 deleted) C-terminally fused to Nanoluciferase [not stated] (parent)
chain 1: MGDKGTRVFKKASPNGKLTVYLGKRDFVDHIDLVDPVDGVVLVDPEYLKERRVYVTLTCAFRDLFVANVQSFPPAPEDKKPLTRLQERLIKKLGEHAYPFTFEIPPNLPCSVTLQPGPEDTGKACGVDYEVKAFCAENLEEKIHKRNSVRLVIRKVQYAPERPGPQPTAETTRQFLMSDKPLHLEASLDKEIYYHGEPISVNVHVTNNTNKTVKKIKISVRQYADICLFNTAQYKCPVAMEEADDTVAPSSTFCKVYTLTPFLANNREKRGLALDGKLKHEDTNLASSTLLREGANREILGIIVSYKVKVKLVVSRGGLLGDLASSDVAVELPFTLMHPKPKEEPPHREVPENETPVDTNLIELDTNDDDIVFEDFARQRLKGMKDDKEEEEDGTGSPQLNNR
chain 2: B1 chain 2

Variants of: B1
Experiment: NanoBRET recruitment assay in living cells
Settings: with β-arrestin2 WT C-terminally fused to Nanoluciferase; HEK-WT + EV; point at the highest PTH(1-34) concentration (about 3 µM); parent: 7.5; read off a plot

response [fold change]	Variant
6	chain 2 S463A S465A S466A S467A S469A
3.4	chain 2 S475A T477A S478A T480A

Same assay, conditions: with β-arrestin2 WT C-terminally fused to Nanoluciferase; HEK-WT cells; point at the highest PTH(1-34) concentration (about 3 µM); parent: 7.3; read off a plot

response [fold change]	Variant
6	chain 2 S463A S465A S466A S467A S469A
3.4	chain 2 S475A T477A S478A T480A

Same assay, conditions: with β-arrestin2 WT C-terminally fused to Nanoluciferase; ΔQ-GRK + EV; point at the highest PTH(1-34) concentration (about 3 µM); parent: 1.7; read off a plot

response [fold change]	Variant
1.8	chain 2 S463A S465A S466A S467A S469A
1.9	chain 2 S475A T477A S478A T480A

Same assay, conditions: with β-arrestin2 WT C-terminally fused to Nanoluciferase; ΔQ-GRK + GRK2; point at the highest PTH(1-34) concentration (about 3 µM); parent: 5; read off a plot

response [fold change]	Variant
4.8	chain 2 S463A S465A S466A S467A S469A
3.2	chain 2 S475A T477A S478A T480A

Variants of: B2
Experiment: NanoBRET recruitment assay in living cells
Settings: with β-arrestin2-dFLR (finger-loop region Y64 to K78 deleted) C-terminally fused to Nanoluciferase; HEK-WT + EV; point at the highest PTH(1-34) concentration (about 3 µM); partner is β-arrestin2-dFLR; parent: 1.4; read off a plot

response [fold change]	Variant
0.95	chain 2 S475A T477A S478A T480A

Same assay, conditions: with β-arrestin2-dFLR (finger-loop region Y64 to K78 deleted) C-terminally fused to Nanoluciferase; ΔQ-GRK + EV; point at the highest PTH(1-34) concentration (about 3 µM); partner is β-arrestin2-dFLR; parent: 1; read off a plot

response [fold change]	Variant
0.95	chain 2 S475A T477A S478A T480A

Same assay, conditions: with β-arrestin2-dFLR (finger-loop region Y64 to K78 deleted) C-terminally fused to Nanoluciferase; ΔQ-GRK + GRK2; point at the highest PTH(1-34) concentration (about 3 µM); partner is β-arrestin2-dFLR; parent: 1.3; read off a plot

response [fold change]	Variant
0.95	chain 2 S475A T477A S478A T480A

Variants of: B3
Experiment: NanoBRET recruitment assay in living cells
Settings: with β-arrestin1-dFLR (finger-loop region Y63 to K77 deleted) C-terminally fused to Nanoluciferase; HEK-WT + EV; point at the highest PTH(1-34) concentration (about 3 µM); partner is β-arrestin1-dFLR; parent: 2.8; read off a plot

response [fold change]	Variant
2.6	chain 2 S463A S465A S466A S467A S469A
1.1	chain 2 S475A T477A S478A T480A

Same assay, conditions: with β-arrestin1-dFLR (finger-loop region Y63 to K77 deleted) C-terminally fused to Nanoluciferase; ΔQ-GRK + EV; point at the highest PTH(1-34) concentration (about 3 µM); partner is β-arrestin1-dFLR; parent: 1; read off a plot

response [fold change]	Variant
1	chain 2 S463A S465A S466A S467A S469A
1	chain 2 S475A T477A S478A T480A

Same assay, conditions: with β-arrestin1-dFLR (finger-loop region Y63 to K77 deleted) C-terminally fused to Nanoluciferase; ΔQ-GRK + GRK2; point at the highest PTH(1-34) concentration (about 3 µM); partner is β-arrestin1-dFLR; parent: 2.3; read off a plot

response [fold change]	Variant
2.1	chain 2 S463A S465A S466A S467A S469A
1.1	chain 2 S475A T477A S478A T480A
